This is an account of results in paper PMC3264566, “Structure-Function Studies of DNA Binding Domain of Response Regulator KdpE Reveals Equal Affinity Interactions at DNA Half-Sites”.

Common to all, as to settings: protein: recombinant; tags: N-terminal His-tag removed with TEV; chain copies: 2; blunt
In data set [1] the target is T1, KdpE DBD (KdpEDBD) (Escherichia coli str. K-12 substr. …, UniProt P21866 124-225).
T1 sequence: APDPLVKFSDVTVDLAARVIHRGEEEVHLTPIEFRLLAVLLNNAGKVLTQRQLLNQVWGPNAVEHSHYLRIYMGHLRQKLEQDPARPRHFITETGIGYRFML
Nature of the data set: AUC sedimentation velocity (Sw isotherm); two-site model, Kd1; AUC: 50 mM HEPES pH 7.4, 150 mM KCl, 1 mM EDTA, 20 C, DNA 0.5 uM in SV; EMSA: 10 mM Tris pH 8.0, 50 mM NaCl, 5% glycerol, 0.1% Triton X-100, 10 mM DTT, 1 mM EDT.

Data set [2] concerns the target T1, KdpE DBD (KdpEDBD). Nature of the data set: AUC sedimentation equilibrium; first binding event, ABB model (macroscopic; upper limit); AUC: 50 mM HEPES pH 7.4, 150 mM KCl, 1 mM EDTA, 20 C, DNA 0.5 uM in SV; EMSA: 10 mM Tris pH 8.0, 50 mM NaCl, 5% glycerol, 0.1% Triton X-100, 10 mM DTT, 1 mM EDT.
Data set [3] addresses T1, KdpE DBD (KdpEDBD). Nature of the data set: EMSA; minimal 21 bp; AUC: 50 mM HEPES pH 7.4, 150 mM KCl, 1 mM EDTA, 20 C, DNA 0.5 uM in SV; EMSA: 10 mM Tris pH 8.0, 50 mM NaCl, 5% glycerol, 0.1% Triton X-100, 10 mM DTT, 1 mM EDT. Background: Mobility shift assays separate free from complexed probe on a gel.
Data set [4] deals with T1, KdpE DBD (KdpEDBD). Nature of the data set: AUC sedimentation equilibrium; S1 half-site only, 1:1, AB model; AUC: 50 mM HEPES pH 7.4, 150 mM KCl, 1 mM EDTA, 20 C, DNA 0.5 uM in SV; EMSA: 10 mM Tris pH 8.0, 50 mM NaCl, 5% glycerol, 0.1% Triton X-100, 10 mM DTT, 1 mM EDT.
The target in data set [5] is T1, KdpE DBD (KdpEDBD). Nature of the data set: AUC sedimentation equilibrium; S2 half-site only, 1:1, AB model; AUC: 50 mM HEPES pH 7.4, 150 mM KCl, 1 mM EDTA, 20 C, DNA 0.5 uM in SV; EMSA: 10 mM Tris pH 8.0, 50 mM NaCl, 5% glycerol, 0.1% Triton X-100, 10 mM DTT, 1 mM EDT.

Numbering of substitutions follows the chain as printed.

B1: kdpFABCBS 30 bp (dsDNA)
DNA 1: CATTTTTATACTTTTTTTACACCCCGCCCG
DNA 2: CGGGCGGGGTGTAAAAAAAGTATAAAAATG
What is called Kd is the concentration at which binding is half-saturated. With B1, the Kd with KdpE DBD (KdpEDBD) [1] was 90 nM; with KdpE DBD (KdpEDBD) [2], 80 ± 25 nM.

B2: kdpFABCBS 5'del1,3'del8 (21 bp) (dsDNA)
DNA 1: ATTTTTATACTTTTTTTACAC
DNA 2: GTGTAAAAAAAGTATAAAAAT
As for B2, the binding result in the data set with KdpE DBD (KdpEDBD) [3] is recorded as “binds”.

B3: kdpFABCBS-7 (dsDNA)
DNA 1: B1 DNA 1 with T17C, T18C
DNA 2: B1 DNA 2 with A13G, A14G
As for B3, the Kd with KdpE DBD (KdpEDBD) [4] is 350 ± 100 nM.

B4: kdpFABCBS-1 (dsDNA)
DNA 1: B1 DNA 1 with T5C, T6C
DNA 2: B1 DNA 2 with A25G, A26G
Take B4: the Kd in the data set with KdpE DBD (KdpEDBD) [5] came to 200 ± 100 nM.
